Assay results: publication PMC4643126, “On the Ancestral UDP-Glucose Pyrophosphorylase Activity of GalF from Escherichia coli” (Frontiers in Microbiology, 2015)
Where a chain is given by its changes, count along the chain named. Names and notes keep the numbering of the source.

B1: GalU (UDP-glucose pyrophosphorylase) from Escherichia coli (enzyme, Escherichia coli K-12, UniProt P0AEP3 1-302, looked up)
chain: MAAINTKVKKAVIPVAGLGTRMLPATKAIPKEMLPLVDKPLIQYVVNECIAAGITEIVLVTHSSKNSIENHFDTSFELEAMLEKRVKRQLLDEVQSICPPHVTIMQVRQGLAKGLGHAVLCAHPVVGDEPVAVILPDVILDEYESDLSQDNLAEMIRRFDETGHSQIMVEPVADVTAYGVVDCKGVELAPGESVPMVGVVEKPKADVAPSNLAIVGRYVLSADIWPLLAKTPPGAGDEIQLTDAIDMLIEKETVEAYHMKGKSHDCGNKLGYMQAFVEYGIRHNTLGTEFKAWLEEEMGIKK
notes: GalU, E. coli K-12, gene galU (909 bp) amplified from genomic DNA, codes for 302 amino acids; expressed from pET28c as an untagged protein; also called UDP-Glc PPase; UTP:glucose-1-phosphate uridylyltransferase; source: E. coli BL21 Star (DE3), purified (DEAE-Sepharose)
B2: GalU_(K202A) (enzyme, Escherichia coli K-12, UniProt P0AEP3 1-302, looked up)
chain: B1 chain with K202A
notes: GalU, E. coli K-12, 302 amino acids, untagged, with K202A; Mutagenesis on the plasmid of the wild-type enzyme; source: E. coli BL21 Star (DE3), purified (DEAE-Sepharose)
B3: GalU_(T20M/R21H) (enzyme, Escherichia coli K-12, UniProt P0AEP3 1-302, looked up)
chain: B1 chain with T20M, R21H
notes: GalU, E. coli K-12, 302 amino acids, untagged, with T20M and R21H; Mutagenesis on the plasmid of the wild-type enzyme; also called GalU T20M/R21H double mutant; source: E. coli BL21 Star (DE3), purified (DEAE-Sepharose)

Target: the molecule itself
Test: SEC; gel filtration of the purified protein on Superdex 200 HR 10/30 in 25 mM Tris-HCl pH 8.0, 100 mM NaCl, 0.1 mM EDTA; mass from a calibration plot of standards

Protein | stoichiometry N
B1 | 4
B2 | 4
B3 | 4
